Target: αvβ8 integrin on β8-transfected SW480 cells and β8-transfected SNB-19 cells (UniProt P26012 43-769; P06756 31-1048)
Assay: cell-based or functional assay

Chain of αvβ8 integrin on β8-transfected SW480 cells and β8-transfected SNB-19 cells (P26012 43-769, chain 1 of 2): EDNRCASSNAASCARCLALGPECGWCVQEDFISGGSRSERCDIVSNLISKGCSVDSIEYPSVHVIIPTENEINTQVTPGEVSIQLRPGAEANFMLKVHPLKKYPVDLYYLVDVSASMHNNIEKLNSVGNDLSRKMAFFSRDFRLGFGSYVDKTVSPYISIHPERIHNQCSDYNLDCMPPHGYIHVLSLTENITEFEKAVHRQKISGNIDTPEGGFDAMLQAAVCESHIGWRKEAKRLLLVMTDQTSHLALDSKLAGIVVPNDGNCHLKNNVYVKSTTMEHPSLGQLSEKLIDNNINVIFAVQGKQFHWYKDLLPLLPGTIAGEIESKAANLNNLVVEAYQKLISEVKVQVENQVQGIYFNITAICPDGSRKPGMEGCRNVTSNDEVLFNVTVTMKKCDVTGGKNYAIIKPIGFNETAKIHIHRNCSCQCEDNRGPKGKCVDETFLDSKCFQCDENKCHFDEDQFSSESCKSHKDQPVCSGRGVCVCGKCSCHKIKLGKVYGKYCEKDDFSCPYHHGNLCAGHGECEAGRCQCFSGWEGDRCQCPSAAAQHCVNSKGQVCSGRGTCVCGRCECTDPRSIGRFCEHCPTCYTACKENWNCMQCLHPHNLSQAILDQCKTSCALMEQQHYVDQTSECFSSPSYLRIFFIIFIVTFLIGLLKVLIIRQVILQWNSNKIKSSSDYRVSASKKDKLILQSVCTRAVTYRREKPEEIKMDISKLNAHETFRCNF
Chain of αvβ8 integrin on β8-transfected SW480 cells and β8-transfected SNB-19 cells (P06756 31-1048, chain 2 of 2): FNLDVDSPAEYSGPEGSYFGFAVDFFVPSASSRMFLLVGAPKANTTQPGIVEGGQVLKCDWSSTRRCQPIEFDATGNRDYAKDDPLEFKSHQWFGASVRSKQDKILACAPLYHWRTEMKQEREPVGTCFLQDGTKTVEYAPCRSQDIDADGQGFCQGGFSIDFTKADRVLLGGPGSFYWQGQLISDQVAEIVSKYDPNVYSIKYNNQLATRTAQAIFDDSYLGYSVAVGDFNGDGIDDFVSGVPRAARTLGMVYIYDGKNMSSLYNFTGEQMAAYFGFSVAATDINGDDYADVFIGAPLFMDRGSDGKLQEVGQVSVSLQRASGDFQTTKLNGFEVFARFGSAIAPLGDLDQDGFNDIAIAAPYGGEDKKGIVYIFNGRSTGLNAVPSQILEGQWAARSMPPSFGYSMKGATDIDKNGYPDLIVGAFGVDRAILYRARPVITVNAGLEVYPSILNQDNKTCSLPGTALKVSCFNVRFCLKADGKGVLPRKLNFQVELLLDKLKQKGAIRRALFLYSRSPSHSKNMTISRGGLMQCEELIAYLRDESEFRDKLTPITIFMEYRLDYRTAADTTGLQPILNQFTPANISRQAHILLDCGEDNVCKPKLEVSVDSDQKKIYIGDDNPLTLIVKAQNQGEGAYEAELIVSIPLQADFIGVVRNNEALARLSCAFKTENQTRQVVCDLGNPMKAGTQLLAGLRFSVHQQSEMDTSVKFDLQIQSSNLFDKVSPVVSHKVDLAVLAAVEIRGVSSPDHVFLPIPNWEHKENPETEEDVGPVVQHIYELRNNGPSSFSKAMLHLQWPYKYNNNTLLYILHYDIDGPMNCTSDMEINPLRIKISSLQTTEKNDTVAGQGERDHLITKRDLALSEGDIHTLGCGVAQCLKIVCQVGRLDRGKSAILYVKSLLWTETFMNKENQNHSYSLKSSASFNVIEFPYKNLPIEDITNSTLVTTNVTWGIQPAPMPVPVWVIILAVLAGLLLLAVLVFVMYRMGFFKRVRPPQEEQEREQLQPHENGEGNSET

B1: ADWA-11 (antibody, V domains shown)
VH: EVQLQQSGAELVRPGAFVKLSCKASGFNIKDYYMNWVLQRPEQGLEWIGWIDPDNGNTIYDPKFQGKASITADTSSNTAYLQLSSLTSEDTAVYYCARRLLMDYWGQGTSVTVSS
VL: DIVMTQAAPSVPVTPGESVSISCRSTKSLLHFNGNTYLFWFLQRPGQSPQRLIYYMSNLASGVPDRFSGRGSGTDFTLRISRVEAEDVGVYYCMQSLEYPFTFGTGTKLEIK
- IC50 for inhibiting TGFβ activation: < 5 nM

Source: patent US20200247891A1 (University of California, published 2020)
